Assay results taken from patent US20200079833A1 (AstraZeneca / MedImmune, published 2020).
Starred links: 1 amine or outer side, 2 acyl side, 3 side chain; linkers in the order of their positions; H or OH if unused. Non-standard residues stand in square brackets, D forms with d. Groups on a side chain read outwards from the residue. Primed or numbered codes have the meaning given here. No end group written: not given here. *: point of attachment. γGlu = O=C(O)[C@H](CCC(=O)[*:2])N[*:1]; αMeF = C[C@](N)(Cc1ccccc1)C(=O)O; αMeK = C[C@](N)(CCCCN)C(=O)O; Lauroyl = CCCCCCCCCCCC(=O)*; αMeS = C[C@](N)(CO)C(=O)O; PEG2′ = not defined here; Aib = CC(C)(N)C(=O)O

Experiments:
Assay in all cases: cell-based or functional assay
[1] = target: T1, glucose-dependent insulinotropic peptide (gastric inhibitory polypeptide) receptor (GIPR), primary cAMP assay … (human, UniProt P48546 22-466)
T1 sequence (looked up): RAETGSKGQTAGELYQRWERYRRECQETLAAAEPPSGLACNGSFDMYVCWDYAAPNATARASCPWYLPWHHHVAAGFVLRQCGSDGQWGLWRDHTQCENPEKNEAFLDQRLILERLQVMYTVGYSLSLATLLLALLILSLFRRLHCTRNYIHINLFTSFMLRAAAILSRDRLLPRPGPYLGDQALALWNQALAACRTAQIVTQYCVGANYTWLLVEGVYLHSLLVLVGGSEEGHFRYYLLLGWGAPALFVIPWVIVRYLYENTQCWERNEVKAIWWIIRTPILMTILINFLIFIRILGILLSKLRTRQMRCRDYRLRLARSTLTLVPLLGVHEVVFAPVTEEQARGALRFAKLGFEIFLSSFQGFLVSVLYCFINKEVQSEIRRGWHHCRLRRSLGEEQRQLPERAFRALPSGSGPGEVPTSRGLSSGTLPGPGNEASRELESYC

[2] = target: GLP-1 receptor (GLP-1R), primary cAMP assay cell line (human, UniProt P43220 24-463)
[3] = target: glucagon receptor (GCGR), primary cAMP assay cell line (human, UniProt P47871 26-477)
Chain of glucagon receptor (GCGR), primary cAMP assay cell line (P47871 26-477): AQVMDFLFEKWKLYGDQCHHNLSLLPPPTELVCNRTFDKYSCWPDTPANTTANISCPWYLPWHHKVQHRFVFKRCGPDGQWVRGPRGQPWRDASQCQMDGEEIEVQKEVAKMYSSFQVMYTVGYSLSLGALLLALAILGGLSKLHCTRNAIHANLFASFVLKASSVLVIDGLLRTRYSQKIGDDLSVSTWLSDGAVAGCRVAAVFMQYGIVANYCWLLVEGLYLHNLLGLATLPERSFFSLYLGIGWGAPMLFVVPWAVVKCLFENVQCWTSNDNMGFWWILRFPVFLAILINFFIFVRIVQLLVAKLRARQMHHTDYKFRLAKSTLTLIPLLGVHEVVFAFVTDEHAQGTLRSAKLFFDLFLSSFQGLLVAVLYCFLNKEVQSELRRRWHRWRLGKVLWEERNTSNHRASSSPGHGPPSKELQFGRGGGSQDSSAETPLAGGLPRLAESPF

Binder: H[Aib]EGS[αMeF]TSDV[αMeS]SYK([PEG2′-PEG2′-γGlu-Lauroyl])EGEK([PEG2′-PEG2′-γGlu-Lauroyl])A[αMeK]EFIK([PEG2′-PEG2′-γGlu-Lauroyl])FVVEGG-NH2 [SEQ ID NO: 453]
- cAMP Primary assay EC50, n1 [1]: 19.5 nM
- cAMP Primary assay EC50, n2 [1]: 19.5 nM
- cAMP Primary assay EC50, Mean pM GLP-1R [2]: 114 pM
- cAMP Primary assay EC50, n1 [2]: 0.0629 nM
- cAMP Primary assay EC50, n2 [2]: 0.165 nM
- cAMP Primary assay EC50, n1 [3]: 19.5 nM
- cAMP Primary assay EC50, n2 [3]: 19.5 nM

Binder: H[Aib]EGS[αMeF]TSDK([PEG2′-PEG2′-γGlu-Lauroyl])SSYLEGEK([PEG2′-PEG2′-γGlu-Lauroyl])A[αMeK]EFIAK([PEG2′-PEG2′-γGlu-Lauroyl])VVEGG-NH2 [SEQ ID NO: 457]
- cAMP Primary assay EC50, n1 [1]: 19.8 nM
- cAMP Primary assay EC50, n2 [1]: 19.8 nM
- cAMP Primary assay EC50, Mean pM GLP-1R [2]: 142 pM
- cAMP Primary assay EC50, n1 [2]: 0.127 nM
- cAMP Primary assay EC50, n2 [2]: 0.156 nM
- cAMP Primary assay EC50, n1 [3]: 19.8 nM
- cAMP Primary assay EC50, n2 [3]: 19.8 nM

Binder: H[Aib]EGS[αMeF]TSDV[αMeS]SK([PEG2′-PEG2′-γGlu-Lauroyl])LEGEK([PEG2′-PEG2′-γGlu-Lauroyl])A[αMeK]EFIAK([PEG2′-PEG2′-γGlu-Lauroyl])VVEGG-NH2 [SEQ ID NO: 465]
- cAMP Primary assay EC50, n1 [1]: 20 nM
- cAMP Primary assay EC50, n2 [1]: 20 nM
- cAMP Primary assay EC50, Mean pM GLP-1R [2]: 117 pM
- cAMP Primary assay EC50, n1 [2]: 0.101 nM
- cAMP Primary assay EC50, n2 [2]: 0.133 nM
- cAMP Primary assay EC50, n1 [3]: 20 nM
- cAMP Primary assay EC50, n2 [3]: 20 nM

Binder: H[Aib]EGS[αMeF]TSDV[αMeS]SK([PEG2′-PEG2′-γGlu-Lauroyl])LEK([PEG2′-PEG2′-γGlu-Lauroyl])EAA[αMeK]EFIAK([PEG2′-PEG2′-γGlu-Lauroyl])VVEGG-NH2 [SEQ ID NO: 463]
- cAMP Primary assay EC50, n1 [1]: 20 nM
- cAMP Primary assay EC50, n2 [1]: 20 nM
- cAMP Primary assay EC50, Mean pM GLP-1R [2]: 82 pM
- cAMP Primary assay EC50, n1 [2]: 0.0695 nM
- cAMP Primary assay EC50, n2 [2]: 0.0944 nM
- cAMP Primary assay EC50, n1 [3]: 20 nM
- cAMP Primary assay EC50, n2 [3]: 20 nM

Binder: H[Aib]EGS[αMeF]TSDVSK([PEG2′-PEG2′-γGlu-Lauroyl])YLEGEAA[αMeK]K([PEG2′-PEG2′-γGlu-Lauroyl])FIK([PEG2′-PEG2′-γGlu-Lauroyl])FVVEGG-NH2 [SEQ ID NO: 446]
- cAMP Primary assay EC50, n1 [1]: 19.7 nM
- cAMP Primary assay EC50, n2 [1]: 19.7 nM
- cAMP Primary assay EC50, Mean pM GLP-1R [2]: 107 pM
- cAMP Primary assay EC50, n1 [2]: 0.0873 nM
- cAMP Primary assay EC50, n2 [2]: 0.127 nM
- cAMP Primary assay EC50, n1 [3]: 19.7 nM
- cAMP Primary assay EC50, n2 [3]: 19.7 nM

Binder: H[Aib]EGS[αMeF]TSDV[αMeS]SYK([PEG2′-PEG2′-γGlu-Lauroyl])EGK([PEG2′-PEG2′-γGlu-Lauroyl])AA[αMeK]EFIK([PEG2′-PEG2′-γGlu-Lauroyl])FVVEGG-NH2 [SEQ ID NO: 452]
- cAMP Primary assay EC50, n1 [1]: 19.5 nM
- cAMP Primary assay EC50, n2 [1]: 19.7 nM
- cAMP Primary assay EC50, Mean pM GLP-1R [2]: 80.9 pM
- cAMP Primary assay EC50, n1 [2]: 0.0857 nM
- cAMP Primary assay EC50, n2 [2]: 0.0761 nM
- cAMP Primary assay EC50, n1 [3]: 19.5 nM
- cAMP Primary assay EC50, n2 [3]: 19.7 nM

Binder: H[Aib]EGS[αMeF]TSDVSK([PEG2′-PEG2′-γGlu-Lauroyl])YLEGK([PEG2′-PEG2′-γGlu-Lauroyl])AA[αMeK]EFIAK([PEG2′-PEG2′-γGlu-Lauroyl])VVEGG-NH2 [SEQ ID NO: 460]
- cAMP Primary assay EC50, n1 [1]: 20 nM
- cAMP Primary assay EC50, n2 [1]: 20 nM
- cAMP Primary assay EC50, Mean pM GLP-1R [2]: 78.1 pM
- cAMP Primary assay EC50, n1 [2]: 0.0674 nM
- cAMP Primary assay EC50, n2 [2]: 0.0888 nM
- cAMP Primary assay EC50, n1 [3]: 20 nM
- cAMP Primary assay EC50, n2 [3]: 20 nM

Binder: H[Aib]EGS[αMeF]TSDK([PEG2′-PEG2′-γGlu-Lauroyl])SSYLEGK([PEG2′-PEG2′-γGlu-Lauroyl])AA[αMeK]EFIAK([PEG2′-PEG2′-γGlu-Lauroyl])VVEGG-NH2 [SEQ ID NO: 456]
- cAMP Primary assay EC50, n1 [1]: 20 nM
- cAMP Primary assay EC50, n2 [1]: 20 nM
- cAMP Primary assay EC50, Mean pM GLP-1R [2]: 170 pM
- cAMP Primary assay EC50, n1 [2]: 0.116 nM
- cAMP Primary assay EC50, n2 [2]: 0.224 nM
- cAMP Primary assay EC50, n1 [3]: 10 nM
- cAMP Primary assay EC50, n2 [3]: 20 nM

Binder: H[Aib]EGS[αMeF]TSDVSK([PEG2′-PEG2′-γGlu-Lauroyl])YLEGEK([PEG2′-PEG2′-γGlu-Lauroyl])A[αMeK]EFIAK([PEG2′-PEG2′-γGlu-Lauroyl])VVEGG-NH2 [SEQ ID NO: 461]
- cAMP Primary assay EC50, n1 [1]: 19.8 nM
- cAMP Primary assay EC50, n2 [1]: 19.8 nM
- cAMP Primary assay EC50, Mean pM GLP-1R [2]: 110 pM
- cAMP Primary assay EC50, n1 [2]: 0.0745 nM
- cAMP Primary assay EC50, n2 [2]: 0.145 nM
- cAMP Primary assay EC50, n1 [3]: 19.8 nM
- cAMP Primary assay EC50, n2 [3]: 19.8 nM
